# Results taken from publication PMC11783328 (Science immunology, 2024).
# Molecular target: T1, BG505 SOSIP.v4.1-GT1.1 (HIV-1 (isolate BG505), UniProt Q2N0S6)
# T1 construct: copies: 3 + 3
# Assay: SPR; Biacore 3000; His-tagged GT1 and GT1.1 trimers captured in parallel flow cells; IgG injected from 1 uM in two- or four-fold dilutions; association 300 s, dissociation 600 s, 50 uL/min; bivalent model (first- and second-point interaction; kon2 and KD2 converted from RU units)
# Conditions: both partners purified
binder,measurement,value
"gl-3BNC60 (antibody, V domains shown, also called 3BNC60 germline; inferred germline precursor of 3BNC60) VH: not shown VL: DIQMTQSPSSLSASVGDRVTITCQASQDISNYLNWYQQKPGKAPKLLIYDASNLETGVPSRFSGSGSGTDFTFTISSLQPEDIATYYCQQYEFIGPGTKVDIK",stoichiometry N,1.1 paratopes per trimer
